Data: PMC8677719

Test system: GST-Co-NF-kB RHD-only (Capsaspora owczarzaki)
Assay: PBM
Conditions: ~300 nM protein; EMSA: 10 mM HEPES pH 7.8, 50 mM KCl, 1 mM DTT, 1 mM EDTA, 4% glycerol, 40 ug/ml poly-dI-dC, 2X BSA, 50 ug 293T extract, 30 C 30 min; PBM: 6 mM HEPES pH 7.8 …

| Sequence | binding signal [PBM z-score] |
| --- | --- |
| CCGATTAACATCAGGAATTCCCCTGATGTTAATCGG (double strand) [PBM probe GGAATTCCCC] | 7.64 |
| CCGATTAACATCAAGGAATTCCCTGATGTTAATCGG (double strand) [PBM probe AGGAATTCCC] | 4.22 |
| CCGATTAACATCAGGGAATTCCCTGATGTTAATCGG (double strand) [PBM probe GGGAATTCCC] | 7.25 |
| CCGATTAACATCAGGAATTCCCATGATGTTAATCGG (double strand) [PBM probe GGAATTCCCA] | 4.61 |
| CCGATTAACATCACGGAATTCCCTGATGTTAATCGG (double strand) [PBM probe CGGAATTCCC] | 3.4 |
